# According to the nanobody polyreactivity screen of Harvey et al. (2022):
# Experiment: yeast display, Sf9 membrane polyspecificity reagent, FACS + sequencing; frameworks hold sequencing errors
# In short: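 Synthetic nanobody libraries on Saccharomyces cerevisiae BJ5465 were galactose-induced for 36–48 hours, stained 1 hour at 4 °C with 10% biotinylated, detergent-solubilized Sf9 membrane reagent and enriched on streptavidin microbeads. FACS then separated cells into low and high (top ~1%) gates by anti-HA (expression) and streptavidin (reagent binding) fluorescence. Genes were colony-PCR amplified, MiSeq 2 × 250 sequenced and CDR-length filtered. A clone's polyreactivity label is that of its gate of origin.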
row,Sequence,polyreactivity (PSR sort gate)
1,QVQLVESGGGLVQAGGSLRLSCAASGSIFRFNAMGWSRQAPGKERELVARITSGGSTNYADSVKGRFTISRDNAKNTVYLQMNSLKPEDTAVYYCAAVYLLRGRRVTSYPYGYWGQGTQVTVSS,high polyreactivity
2,QVQLVESGGGLVQAGGSLRLSCAASGSIFRGNAIGWYRQAPGKDRELVAAISWNGVSTYYADSVKGRFTISRDNAKHTVYLQMNSLKPEDTAVYYCPTVGLRRLFVKPGTLKDYWGQGTQVTVSS,low polyreactivity
3,QVQLVESGGGLVQAGGSLRLSCAASGSIFRGNAMGWYRQAPGKERELVAAISKSGGSTYYADSVKGRFTISRDNAKNTVYLQMNSLKPEDTAVYYCAARTTYLYGMYYWGQGTQVTVSS,low polyreactivity
4,QVQLVESGGGLVQAGGSLRLSCAASGSIFRGNTMGWYRQAPGKERELLAAINWTGGSTYYADSVKGRFTISRDNAKYTVYLQMNSLKPEDTAVYYCAARKFTSYYWGRSYGYWGQGTQVTVSS,high polyreactivity
5,QVQLVESGGGLVQAGGSLRLSCAASGSIFRGYAMGWYRPAPGKERELVAAISSSGGTTYYADSVKGRFTISRDNAKNTVYLQMNSLKPEDTAVYYCNARHPYTGGRRYPYTRYDYWGQGTQVTVSS,high polyreactivity
6,QVQLVESGGGLVQAGGSLRLSCAASGSIFRGYAMGWYRQAPGKEREFVASITWSAGRTRYADSVKGRFTISRDNAKNTVYLQMNSLKPEDTAVYYCAADHGSYWPRYDYWGQGTQVTVSS,high polyreactivity
7,QVQLVESGGGLVQAGGSLRLSCAASGSIFRGYAMGWYRQAPGKERELVAGIRGSDGSTYYADSVKGRFTISRDNAKNTVYLQMNSLKPEDTAVYYCAADRRYLDRDKHRYGYWGQGTQVTVSS,low polyreactivity
8,QVQLVESGGGLVQAGGSLRLSCAASGSIFRHNAMGGYRQSPGKERELVAAISRRASSTYYADSVKGRFTISRDNAKNTVYLQLNSLKPEDTAVYYCAVVPSTTYHAYDYWGQGTQVTVSS,high polyreactivity
9,QVQLVESGGGLVQAGGSLRLSCAASGSIFRIYAMGWYRQAPGKERELVAAITGRGGSTYYADSVKGRFTISRDNAKNTVYLQMNSLKPEDTAVYYCAAEERYAYRYDYWGQGTQVTVSS,high polyreactivity
10,QVQLVESGGGLVQAGGSLRLSCAASGSIFRIYAMGWYRQAPGKEREWVAAINSGGITNYADSVKGRFTISRDNAKNTVYLQMNSLKPEDTAVYYCNARQGVYGLYLRAYPYEYWGQATQVTVSS,low polyreactivity
11,QVQLVESGGGLVQAGGSLRLSCAASGSIFRIYVMGWYRQAPGKERELVAAINSGGRTKYADSVKGRFTISRDNAKNTVYLLMNSLKPDDTAVYYCAAAFLYRKGVSSLYDSWGQGTQVTVSS,high polyreactivity
12,QVQLVESGGGLVQAGGSLRLSCAASGSIFRIYVMGWYRQAPGKERELVAAITNDGSTSYADSVKGRFTISRDNAKNTVYLQMNSLKPEDTAVYYCNAYRRRATYNGDYWGQGTQVTVSS,high polyreactivity
13,QVQLVESGGGLVQAGGSLRLSCAASGSIFRKNAMGWYREAPGKERELVATISGGGSTTYADSVKGRFTISRDNAKNTLYLQMNSLKPEDTAVYYCAARSTWFQIRYGYWGQGNQVTVSS,high polyreactivity
14,QVQLVESGGGLVQAGGSLRLSCAASGSIFRKNAMGWYRPAPGKERELVATISGGGSTTYADSVKGRFTISRDNAKNTVYVHMNSLKPEDTAVYYCAARSTWFQLRYGYGGQGTQVTVSS,high polyreactivity
15,QVQLVESGGGLVQAGGSLRLSCAASGSIFRKYAMGWYRQAPGKERELVAAITGSGGSTYYADSVKGRFTISRDNAKNTVYLQMNSLKPEDTAVYYCAAPFGWRPLPISKVTSDYWGQGTQVTVSS,high polyreactivity
16,QVQLVESGGGLVQAGGSLRLSCAASGSIFRKYTMGWYRQAPGKERELVAAINTNGGSTYYADSVKGRFTISRDNAKNTVYLQMNSLKPEDTAVYYCRAWAQNQYNYWGQGTQVTVSS,high polyreactivity
17,QVQLVESGGGLVQAGGSLRLSCAASGSIFRLNTMGWYRQAPGKERELVAAITRSGSTNYADSVKGRFTISRDNAMNTVYLQMNSLKPEDTAVYYCAARYPREAAYGFEYWGQGTQVTVSS,high polyreactivity
18,QVQLVESGGGLVQAGGSLRLSCAASGSIFRLYAMGWYRQAPGKERELVAAITGRGTSTYYADSVKGRFTISRDNAKNTVYLQMNSLKPEDTAVYYCAARLFKNSGTTYDRYGYWGQGTQVTVSS,high polyreactivity
19,QVQLVESGGGLVQAGGSLRLSCAASGSIFRNYAMGWSRPATGKERELVASIRYSGGRTNYADSVKGRFTISRDNAKNTVYLQMNSLKPEDTAVYYCAADPGYGWQRAYYYWGQGTQVTVSS,high polyreactivity
20,QVQLVESGGGLVQAGGSLRLSCAASGSIFRNYAMGWYRKAPGKERELVADSTYYADSVKGRFTISRDNAKNTVYLQMNSLKPEDTAVYYCNTVYATRYDYWGQGTQVTVSS,high polyreactivity
21,QVQLVESGGGLVQAGGSLRLSCAASGSIFRNYAMGWYRQAPGKERELVSAITRGGGSTYYADSVKARFTISRDNAKNTVYLQMNSLKPEETAVYYCAAVRVFQYKYDRFNYWGQGTQVTVSS,high polyreactivity
22,QVQLVESGGGLVQAGGSLRLSCAASGSIFRPNALGWYRQAPGKERELVAAITWSGDSTYYADSVKGRFTISRDNAKNTVYLQINSLKPEDTAVYYCAVVSYKVTESGIRMYYWGQGTQVTVSS,low polyreactivity

row,Sequence,polyreactivity (PSR sort gate)
1,QVQLVESGGGLVQAGGSLRLSCAASGSIFRPNAMGWYRQAPGKERELVAAINTSDDSTYYADSVKGRFTISRDNAKNTVYLQMNSLKPEDTAVYYCASDGVVPGRFFWPAHEYDYWGQGTQVTVSS,low polyreactivity
2,QVQLVESGGGLVQAGGSLRLSCAASGSIFRPNTMGWYRQAPGKERELVAAIRYRGGGTYYADSVKGRFTISRDNAKNTVYLQMNSLKPEDTAVYFCNAPRRNWSYDYWGQGTQVTVSS,high polyreactivity
3,QVQLVESGGGLVQAGGSLRLSCAASGSIFRPYAMGWYRQAPGKERELVAAISVRGGRSYYADSVKGRFTISRDNAKNTVYLQMNSLKPEDTAVYYCNTVRQLGYTGYDYWGQGTQVTVSS,high polyreactivity
4,QVQLVESGGGLVQAGGSLRLSCAASGSIFRPYAMGWYRQAPGKERELVAGISLRGGSTSYADSVKGRFTISRDNAKNTVYLQMNSLKPEDTAVYYCAASYWWKGDSTYGYWGQGTQVTVSS,high polyreactivity
5,QVQLVESGGGLVQAGGSLRLSCAASGSIFRQNVMGWYRQAPGKERELVAAISRNGGSTYYADSVKGRFTISRDNAKNTVYFQMNSLKPEDTGVYYCAARGFRRYDYWGQGTQVTVSS,high polyreactivity
6,QVQLVESGGGLVQAGGSLRLSCAASGSIFRQYAMGWYRQAPGKERELVAAIRSGGSTYYADSVKGRFTISRDNAKNTVYLQMNSLKPEDTAVYYCATRYHWSGYYYWGQGTQVTVSS,high polyreactivity
7,QVQLVESGGGLVQAGGSLRLSCAASGSIFRRFAMGWYRQAPGKEREFVAAISRSSDNTSYADSVKGRFTISRDNAKNTVYLQMNSLKPEDTAVYYCNADASWYGYWYYYWGQGTQVTVSS,low polyreactivity
8,QVQLVESGGGLVQAGGSLRLSCAASGSIFRRNAMGWYRQAPGKERELVAAISQSGGSTYYADSVKGRFTISRDNAKNTVYLQMNSLKPEDTAVYYCAAKAHTVGGYAYYHTSTYYWGQGTQVTVSS,high polyreactivity
9,QVQLVESGGGLVQAGGSLRLSCAASGSIFRRNAMGWYRQAPGKERELVATITSDGSTDYADSVKGRFTISRDNAKNTVYLQMNSLKPEDTAVYYCAADRGVYDPGDYWGQGTQVTVSS,low polyreactivity
10,QVQLVESGGGLVQAGGSLRLSCAASGSIFRRNAMGWYRQAPGKERELVAVITRSGGSTYYADSVKGRFTISRDNAKTTVDLQMNSLKPEDTAVYYCDASRSSTRSFDYWGQGTQVTVSS,high polyreactivity
11,QVQLVESGGGLVQAGGSLRLSCAASGSIFRRNGMGWYRQAPGKERELVAAITYRGGNTNYADSVKGRFTISRDNAKNTVYFQMNRLKPEDTAVYYCAADTYGWWYAFEYWGQGTQVKVSS,low polyreactivity
12,QVQLVESGGGLVQAGGSLRLSCAASGSIFRRNSMGWYRQAPGKERELVAAITRRGGSTYYADSVKGRFTISRDNAKNTVYLQMNSLKPEDTAVYYCAADPPDGFYYTWDYDYWGQGTQVTVSS,low polyreactivity
13,QVQLVESGGGLVQAGGSLRLSCAASGSIFRRNTMGWYRQAPGKERELVAAITFTGGRTYYADSVKGRFTISRDYAKNTVYLQMNSLKPEDTAVYYCNRVTAYYPTKFDYWGQGTQVNVSS,high polyreactivity
14,QVQLVESGGGLVQAGGSLRLSCAASGSIFRRTTQGGYRQAPGKERELVAAITYRGGSTYYADSVKGRFTISRDNAKNTVYFQMHSLKPEDTAVYYCARYHWYYPVSKSDSWGQGTQVTVSS,high polyreactivity
15,QVQLVESGGGLVQAGGSLRLSCAASGSIFRRYAMGWYGQAPGKERELVAAISWSGGSTYYADSVKGRFTISRDNAKNTVYLQMNSLKPEDTAVYYCAARHRQQKLDYWGQGTQVTVSS,high polyreactivity
16,QVQLVESGGGLVQAGGSLRLSCAASGSIFRRYAMGWYRQAPGKERELVAAISTRGGSTYYADSVKGRFTISRDNAKNTVYLQMNSLKPEDTAVYYCAVKGSGGPKYDYWGQGTQVTVAS,high polyreactivity
17,QVQLVESGGGLVQAGGSLRLSCAASGSIFRRYTMGWYRQAPRKERELVAAISRVGNTNYADSVKGRFTISRDNAKNTVYLQLNSLKPEDTAVYYCAARGIGYRYTPGLNYWGQGTQVTVSS,high polyreactivity
18,QVQLVESGGGLVQAGGSLRLSCAASGSIFRSYAMGWYRPAPGKERELVASITWRGGRTYYADSVKGRFTISRDNAKNTVYLQMNSLKPEDTAVYYCAVLWTPAGGYYFRYDYWGQGTQVTVSS,low polyreactivity
19,QVQLVESGGGLVQAGGSLRLSCAASGSIFRSYAMGWYRQAPGKEREFVAAIRNSSGRTYYADSVKGRFTISRDNAKNTVYLQMNSLKPEDTAVYYCAARLPRTYQGGKLYRLQYSWGQGTQVTVSS,high polyreactivity
20,QVQLVESGGGLVQAGGSLRLSCAASGSIFRSYAMGWYRQAPGKERELVAAITYSGGGTYYADSVKGRFTISRDNAKTTVYLQMNSLKPEDTAVYYCNAVGGIYDFDYWGQGTQVTVSS,high polyreactivity
21,QVQLVESGGGLVQAGGSLRLSCAASGSIFRSYAMGWYRQAPGKERELVAGISYSGGSTYYADSVKGRFTISRDNAKNTVYLQMNSLKPEDTAVYYCATVSYYDRYDYDYWGQGTQVTVSS,low polyreactivity
